Source: US20230085439A1

How the values were obtained:
[1] = molecular target: hMPV 130-BV (human metapneumovirus); experiment: biolayer interferometry, hMPV 130-BV on anti-penta-HIS biosensors; unit inferred
[2] = molecular target: monomeric hMPV B2 F protein treated with trypsin (human metapneumovirus); experiment: ELISA on coated antigen, mAb titrated; panel hMPV B2 F monomer (trypsin), key 6
[3] = molecular target: trimeric hMPV B2 F protein treated with trypsin (human metapneumovirus); experiment: ELISA on coated antigen, mAb titrated; panel hMPV B2 F trimer (trypsin), key 6
[4] = molecular target: pre-fusion RSV F protein A2 SC-TM (respiratory syncytial virus) (UniProt P03420); experiment: ELISA on coated antigen, mAb titrated; EC50 box, key 6

Substance: 101F Fab
- Kd [1]: 53 nM

Substance: DS7 (antibody)
- EC50 [2]: 0.1 µg/mL
- EC50 [3]: 0.18 µg/mL

Substance: MPE8 (antibody)
- EC50 [4]: 0.087 µg/mL
